Data reported in the supplement of paper PMC10567573.

B1: RHOBTB3 (parent)
chain: DSCCPAGIFQAMCLLICAEMYQVS

Variants of: B1
Assay: protein stability index of a GFP-peptide fusion (GPS, HEK-293T) (PSI 1-6); higher = more stable
Conditions: c terminus: a fixed tail appended
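Also: lentivirally expressed fusions sorted by FACS into six bins by GFP to DsRed ratio, PSI derived from sequencing read proportions per bin multiplied by bin number.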

For DSCCPAGIFQAMCLLICLEMYQVS [A18L], which protein stability index is on record?
Its protein stability index is 2.35.

Which protein stability index does the source give for DSACPAGIFQAMCLLICAEMYQVS [C3A] here?
The protein stability index was 3.18.

With DSCCPIGIFQAMCLLICAEMYQVS [A6I] as the variant, how does the protein stability index read?
Its protein stability index is 2.76.

With DSCCPAGIFQAMCLFICAEMYQVS [L15F] as the variant, how does the protein stability index read?
The protein stability index was 2.97.

For DSCCPAGIFQIMCLLICAEMYQVS [A11I], which protein stability index is on record?
The protein stability index was 2.4.

With DSCHPAGIFQAMCLLICAEMYQVS [C4H] as the variant, how does the protein stability index read?
The protein stability index was 4.64.

Which protein stability index does the source give for DSCCPAGIFQAMCLLICASMYQVS [E19S] here?
Its protein stability index is 2.06.

For DSCCPAGIFQAMCLLICAEVYQVS [M20V], which protein stability index is on record?
Its protein stability index is 2.24.

For DSCCKAGIFQAMCLLICAEMYQVS [P5K], which protein stability index is on record?
Its protein stability index is 2.16.

With DSCCPAGIFQAMWLLICAEMYQVS [C13W] as the variant, how does the protein stability index read?
Its protein stability index is 3.35.

With DSCCPAGIFQAMCLNICAEMYQVS [L15N] as the variant, how does the protein stability index read?
Its protein stability index is 1.98.

Which protein stability index does the source give for RSCCPAGIFQAMCLLICAEMYQVS [D1R] here?
Its protein stability index is 2.64.

Which protein stability index does the source give for DSCVPAGIFQAMCLLICAEMYQVS [C4V] here?
Its protein stability index is 2.88.

Which protein stability index does the source give for DSCCPAGIFQAMCLLICAEMYQPS [V23P] here?
Its protein stability index is 2.88.

For DSCCPAGIFQAMCLLICAEMYSVS [Q22S], which protein stability index is on record?
Its protein stability index is 2.99.

With DSCCPAGIFQAMCLLICANMYQVS [E19N] as the variant, how does the protein stability index read?
Its protein stability index is 2.31.

Which protein stability index does the source give for DSCCPAGIFQAMCLHICAEMYQVS [L15H] here?
The protein stability index was 1.08.

For DSCCPAGIPQAMCLLICAEMYQVS [F9P], which protein stability index is on record?
The protein stability index was 1.51.

For DSCCPAGIFQAMCLLICAEMYQWS [V23W], which protein stability index is on record?
Its protein stability index is 3.16.

Which protein stability index does the source give for DSCCPAFIFQAMCLLICAEMYQVS [G7F] here?
Its protein stability index is 2.49.

With DSCCPAGIFQAMCLMICAEMYQVS [L15M] as the variant, how does the protein stability index read?
The protein stability index was 2.19.

With DSCCPAGIFQAMCLLICAEMYVVS [Q22V] as the variant, how does the protein stability index read?
Its protein stability index is 3.65.

Which protein stability index does the source give for DSCCPAGIFQKMCLLICAEMYQVS [A11K] here?
The protein stability index was 1.32.

With DSCCPAGIFQAMCLLICAEMYQVL [S24L] as the variant, how does the protein stability index read?
The protein stability index was 3.43.

Which protein stability index does the source give for DKCCPAGIFQAMCLLICAEMYQVS [S2K] here?
The protein stability index was 4.66.

With DSCCPAGIFQAMCLLIRAEMYQVS [C17R] as the variant, how does the protein stability index read?
Its protein stability index is 4.51.

With DSCCPAGIFQAMCLLICAETYQVS [M20T] as the variant, how does the protein stability index read?
The protein stability index was 2.03.

With DWCCPAGIFQAMCLLICAEMYQVS [S2W] as the variant, how does the protein stability index read?
Its protein stability index is 3.17.

With DSCCPAGIFNAMCLLICAEMYQVS [Q10N] as the variant, how does the protein stability index read?
The protein stability index was 2.37.

Which protein stability index does the source give for DSCCPAGIFQAMCLLICAEMYQVM [S24M] here?
The protein stability index was 1.94.

For DSCCPAGIFQAMCLLNCAEMYQVS [I16N], which protein stability index is on record?
Its protein stability index is 2.67.

Which protein stability index does the source give for DICCPAGIFQAMCLLICAEMYQVS [S2I] here?
The protein stability index was 3.54.

With DSCCPAGIFQAMCLLICAEMIQVS [Y21I] as the variant, how does the protein stability index read?
The protein stability index was 4.41.

With DSCCPAGIFQAMCLLICAEMYQVQ [S24Q] as the variant, how does the protein stability index read?
Its protein stability index is 3.86.

For DSCCPAGIFQAMCLLICAEMEQVS [Y21E], which protein stability index is on record?
The protein stability index was 2.38.

Which protein stability index does the source give for DSCCPAGIFQAMCLLECAEMYQVS [I16E] here?
Its protein stability index is 1.7.

For DSCCHAGIFQAMCLLICAEMYQVS [P5H], which protein stability index is on record?
Its protein stability index is 3.17.

With DSCCPAGIFQAMCLLICAEMYGVS [Q22G] as the variant, how does the protein stability index read?
The protein stability index was 3.65.

Which protein stability index does the source give for DSCCPAGIFQAMCLLICHEMYQVS [A18H] here?
Its protein stability index is 3.29.

Which protein stability index does the source give for DSCCIAGIFQAMCLLICAEMYQVS [P5I] here?
Its protein stability index is 2.61.

With DSCCAAGIFQAMCLLICAEMYQVS [P5A] as the variant, how does the protein stability index read?
Its protein stability index is 1.65.

Which protein stability index does the source give for DSCCPAGIFQAMCLLICAEMYQIS [V23I] here?
Its protein stability index is 4.12.

With DSCCPAGIFQAMQLLICAEMYQVS [C13Q] as the variant, how does the protein stability index read?
The protein stability index was 4.88.

Which protein stability index does the source give for DSCCPAGIFQAMCLWICAEMYQVS [L15W] here?
The protein stability index was 1.09.

With DSCCPVGIFQAMCLLICAEMYQVS [A6V] as the variant, how does the protein stability index read?
Its protein stability index is 3.18.

For DSCCPAGIFQAMCLLICAEMYPVS [Q22P], which protein stability index is on record?
Its protein stability index is 2.12.

Which protein stability index does the source give for DSCTPAGIFQAMCLLICAEMYQVS [C4T] here?
The protein stability index was 2.08.

With MSCCPAGIFQAMCLLICAEMYQVS [D1M] as the variant, how does the protein stability index read?
Its protein stability index is 3.85.

For DSCCPAGIFQAMCLLICAEMYQVC [S24C], which protein stability index is on record?
Its protein stability index is 2.39.

Which protein stability index does the source give for DSCCPAGIFQAMCLLMCAEMYQVS [I16M] here?
Its protein stability index is 2.51.

For ISCCPAGIFQAMCLLICAEMYQVS [D1I], which protein stability index is on record?
The protein stability index was 2.69.

Which protein stability index does the source give for DSCCPAGIFQAMCLLICAEMYQVK [S24K] here?
The protein stability index was 3.25.

With DSCCPAGIFQAMCLLICADMYQVS [E19D] as the variant, how does the protein stability index read?
Its protein stability index is 2.72.

With DSKCPAGIFQAMCLLICAEMYQVS [C3K] as the variant, how does the protein stability index read?
The protein stability index was 3.1.

Which protein stability index does the source give for DSCCPAGIFQAMCLLICAEMYDVS [Q22D] here?
Its protein stability index is 2.17.

With DSCCPAGIFQAMCLLICAEMGQVS [Y21G] as the variant, how does the protein stability index read?
Its protein stability index is 3.18.

For DSCCPAGIDQAMCLLICAEMYQVS [F9D], which protein stability index is on record?
The protein stability index was 1.51.

For DSCCPAGIFQAMCLLIDAEMYQVS [C17D], which protein stability index is on record?
The protein stability index was 1.91.

For DSCCPKGIFQAMCLLICAEMYQVS [A6K], which protein stability index is on record?
The protein stability index was 3.98.

Which protein stability index does the source give for DSCPPAGIFQAMCLLICAEMYQVS [C4P] here?
Its protein stability index is 2.84.

Which protein stability index does the source give for DPCCPAGIFQAMCLLICAEMYQVS [S2P] here?
The protein stability index was 2.93.

With DSCCPAGIFQAMCLLLCAEMYQVS [I16L] as the variant, how does the protein stability index read?
Its protein stability index is 2.92.

Which protein stability index does the source give for DSCCPAGIFQAMCLLICAEMYQVI [S24I] here?
Its protein stability index is 1.96.

Which protein stability index does the source give for DSCCPAGIFQAMCLLICAMMYQVS [E19M] here?
Its protein stability index is 1.55.

Which protein stability index does the source give for DSCFPAGIFQAMCLLICAEMYQVS [C4F] here?
Its protein stability index is 2.94.

For DSCCPAGIFQAMHLLICAEMYQVS [C13H], which protein stability index is on record?
Its protein stability index is 2.4.

With DSCCPAHIFQAMCLLICAEMYQVS [G7H] as the variant, how does the protein stability index read?
Its protein stability index is 2.75.

With DSCCPAGMFQAMCLLICAEMYQVS [I8M] as the variant, how does the protein stability index read?
The protein stability index was 1.95.

Which protein stability index does the source give for DSCCPMGIFQAMCLLICAEMYQVS [A6M] here?
The protein stability index was 4.16.

With DSCCPPGIFQAMCLLICAEMYQVS [A6P] as the variant, how does the protein stability index read?
Its protein stability index is 2.76.

With DSRCPAGIFQAMCLLICAEMYQVS [C3R] as the variant, how does the protein stability index read?
The protein stability index was 2.33.

Which protein stability index does the source give for DSCMPAGIFQAMCLLICAEMYQVS [C4M] here?
Its protein stability index is 4.

Which protein stability index does the source give for DSCCPAGIFQAMALLICAEMYQVS [C13A] here?
The protein stability index was 3.91.

For DSCCPAGIFQYMCLLICAEMYQVS [A11Y], which protein stability index is on record?
The protein stability index was 3.96.

With DLCCPAGIFQAMCLLICAEMYQVS [S2L] as the variant, how does the protein stability index read?
Its protein stability index is 2.17.

With DSHCPAGIFQAMCLLICAEMYQVS [C3H] as the variant, how does the protein stability index read?
Its protein stability index is 1.02.

For DSCCPAGIFQAMCILICAEMYQVS [L14I], which protein stability index is on record?
Its protein stability index is 2.24.

With DSCCPANIFQAMCLLICAEMYQVS [G7N] as the variant, how does the protein stability index read?
The protein stability index was 2.19.

With DSTCPAGIFQAMCLLICAEMYQVS [C3T] as the variant, how does the protein stability index read?
Its protein stability index is 1.39.

For DSCCPAGIAQAMCLLICAEMYQVS [F9A], which protein stability index is on record?
Its protein stability index is 2.97.

Which protein stability index does the source give for SSCCPAGIFQAMCLLICAEMYQVS [D1S] here?
Its protein stability index is 2.77.

For DSCCPCGIFQAMCLLICAEMYQVS [A6C], which protein stability index is on record?
Its protein stability index is 3.25.

Which protein stability index does the source give for DSCCPAGIFQAMCLLICAVMYQVS [E19V] here?
Its protein stability index is 3.28.

With DSCCPAGIFQAMCLLIMAEMYQVS [C17M] as the variant, how does the protein stability index read?
The protein stability index was 5.55.

With DSCCPAGIFQAMCALICAEMYQVS [L14A] as the variant, how does the protein stability index read?
The protein stability index was 3.65.

For DSCCPAGIFQAMCLLICAEMYQVP [S24P], which protein stability index is on record?
Its protein stability index is 4.65.

Which protein stability index does the source give for DSCCPAGIFQAMPLLICAEMYQVS [C13P] here?
The protein stability index was 2.42.

With DSCCPAGIFQAMCLLINAEMYQVS [C17N] as the variant, how does the protein stability index read?
The protein stability index was 3.58.

With DSCCPAGIFQAMCLLICALMYQVS [E19L] as the variant, how does the protein stability index read?
Its protein stability index is 5.4.

Which protein stability index does the source give for DSSCPAGIFQAMCLLICAEMYQVS [C3S] here?
Its protein stability index is 3.1.

For PSCCPAGIFQAMCLLICAEMYQVS [D1P], which protein stability index is on record?
The protein stability index was 1.89.

For ESCCPAGIFQAMCLLICAEMYQVS [D1E], which protein stability index is on record?
Its protein stability index is 2.3.

Which protein stability index does the source give for DSCCPAGIFQAMCLLICAEMYQVA [S24A] here?
Its protein stability index is 3.22.

With NSCCPAGIFQAMCLLICAEMYQVS [D1N] as the variant, how does the protein stability index read?
Its protein stability index is 3.73.
